From patent US6855549B1, “Methods and compositions for increasing the infectivity of gene transfer vectors” (The University of Iowa Research Foundation, priority 1998, dated 2005)

Columns and labels:
airway epithelial cells = assay: BrdU staining of KGF-treated airway cultures; type: cell-based, human; details: KGF 100 ng/ml, two consecutive days
Description: Identification of proliferating airway epithelial cells were performed using bromodeoxyuridine (BrdU) labeling reagents from Zymed Laboratories (South San Francisco, Calif.). Cells were treated with recombinant human keratinocyte growth factor (rKGF; Chiron, San Diego, Calif.) at 100 ng/ml for two consecutive days. The cells were then pulse labeled for 12 hr with a 1:100 dilution of the BrdU labeling reagent prior to fixation in 10% neutral buffered formalin. Histochemical staining of BrdU incorporation into nuclei was performed according to the manufacturer's instructions. Cells were counterstained with hematoxylin and the cell culture filters were examined by en face microscopy of the apical surface.

epithelia = details: in vivo; cited from earlier work
[1] = tested on: human bronchial epithelial cells; type: cell-based
Description: Primary human airway epithelial cells were collected by enzymatic digestion of bronchial samples from lung transplants as previously described (Kondo et al., 1991; Zabner et al., 1996). Isolated airway primary cells were seeded at a density of 5×10^5 cells/cm^2 onto collagen-coated Millicell-HA culture inserts (Millipore, Bedford, Mass.). Primary cultures were grown at the air-liquid interface for more than 2 wk, at which time differentiation into a mucociliary epithelium occurs. The culture medium, used to feed only the basolateral side of the cells, contained 49% Dulbecco's modified Eagle's medium (DMEM), 49% Ham's F12, and 2% Ultraser G (BioSepra, Cedex, France).
Recombinant AAV virus was produced by a CaPO4 co-transfection protocol and was purified through three rounds of isopycnic cesium chloride ultracentrifuigation, as previously described (Duan et al., 1997). […] Typical yields were 1×10^9 particles/μl, determined on the basis of DNA slot-blot hybridization assays against plasmid standards. […] Viral preparations were evaluated for the contamination of wild type AAV (wtAAV) by immunocytochemical staining of AV.GFP3ori/Ad.CMVLacZ (Duan et al., 1998)-coinfected 293 cells with anti-Rep antibodies (American Research Products, Belmont, Mass.). […]

B1: KGF: recombinant human keratinocyte growth factor (protein, UniProt P21781 32-194, looked up)
Fibroblast growth factor 7: CNDMTPEQMATNVNCSSPERHTRSYDYMEGGDIRVRRLFCRTQWYLRIDKRGKVKGTQEMKNNYNIMEIRTVAVGIVAIKGVESEFYLAMNKEGKLYAKKECNEDCNFKELILENHYNTYASAKWTHNGGEMFVALNQKGIPVRGKKTKKEQKTAHFLPMAIT
- cell proliferation by BrdU incorporation (airway epithelial cells): significant increases in cell proliferation
- mutagenicity (epithelia): is not mutagenic
- long-term (40 day) gene expression after KGF ([1]; infection from the basal side): inhibited twofold
- efficiency of rAAV transduction after KGF ([1]; virus apical or basolateral): did not increase the efficiency of rAAV transduction
